Reference: publication PMC6815173
pKd: −log10 of the molar value. Like-named read-outs stand apart in the source and are kept apart here.

Legend:
Experiment in all cases: SPR
[1] = target: M domain of α-catenin (human)
[2] = target: actin-binding domain (ABD) of α-catenin (human)
[3] = target: actin-binding domain (ABD) of α-catenin (human); remark: listed apart in the source

pKd [1]: 6.99
koff [1]: 0.0013 s⁻¹
pKd [2]: 6.33
pKd [3]: 6.31
Substance: β-catenin•epithelial cadherin cytoplasmic domain complex (BE) (from UniProt P35222;P12830)
